Results on 8 molecules are retold here after patent US20250355001A1 (GTINVENT, published 2025).

Like-named read-outs stand apart in the source and are kept apart here. Where no end group is shown, it is not given here. The star is where a group is joined. Biotin = O=C1N[C@H]2[C@H](CS[C@H]2CCCCC(=O)*)N1

The target in one assay is T1, tau peptide 313-336 (human).
T1 peptide: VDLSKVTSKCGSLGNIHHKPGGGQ
Put plainly: peptide ELISA.

For the next assay, the target named is T2, tau peptide 306-323.
T2 peptide: Biotin-VQIVYKPVDLSKVTSKCG
Put plainly: peptide ELISA.

In assay [1] the target is T3, dGA (tau 297-390) (human, UniProt P10636 614-707). Put plainly: SPR, scAb captured, tau analyte. Summed up:
(§1)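 scAb captured on flow cell 2 of an antibody-coated chip, flow cell 1 as reference; tau analyte injected 120 s association, 420 s dissociation, glycine pH 2.0 regeneration, in multi-cycle or single-cycle kinetics format. Responses fitted to a 1:1 binding model for kinetics and affinity.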
Target sequence in this assay (P10636 614-707 limits assumed): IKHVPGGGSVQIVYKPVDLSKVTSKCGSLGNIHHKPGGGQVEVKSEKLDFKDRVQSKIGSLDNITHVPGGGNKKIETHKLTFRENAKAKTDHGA

The target of assay [2] is T4, dGAE (tau 297-391) (human, UniProt P10636 614-708).
T4 construct: monomer; also called dGAE95
Put plainly: direct ELISA. The gist of the method:
(§2)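 Plates were coated with 1 μg/ml tau protein or truncated fragment, or with 5 μg/ml streptavidin followed by 1 μg/ml biotinylated 13mer peptide, then blocked with 2% MPBS. Anti-tau scAbs were added at a starting concentration and double diluted. Bound scAb was detected with HRP-conjugated anti-human C kappa by absorbance.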

The target in assay [3] is T3, dGA (tau 297-390). Put plainly: direct ELISA. Summed up:
as §2

For assay [4], the target named is T5, full length human tau protein 2N4R (hT40) (human, UniProt P10636 1-758).
T5 construct: recombinant; also called T441
Nature of the assay: direct ELISA. The gist of the method:
as §2

In assay [5] the target is T5, full length human tau protein 2N4R …. Put plainly: SPR, hT40 immobilised, mAb analyte.
In assay [6] the target is T6, human tau (hT40) with P301S and G335D of Line 66 mice (human, UniProt P10636 1-758).
T6 construct: transgene product in brain homogenate or plasma; also called L66 human tau
Put plainly: Western blot.

A further assay has as its target T7, aggregated dGAE (human, UniProt P10636 614-708, limits assumed).
T7 construct: dGAE aggregated in vitro with DTT, 700 rpm, 37 C, 24 h; also called dGAE aggregates; dGAE agg
Nature of the assay: capture ELISA, mAb coated at 1 µg/ml, aggregates titrated, S1D12 scAb detection.

For assay [7], the target named is T5, full length human tau protein 2N4R …. Nature of the assay: SPR, summary table. The gist of the method: as §1
In assay [8] the target is T8, tau fragment 266-359 (R1-3) (human, UniProt P10636 583-676). Put plainly: direct ELISA.
For assay [9], the target named is T9, tau fragment 369-391 (human).
T9 peptide: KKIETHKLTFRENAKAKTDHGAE
Nature of the assay: direct ELISA.

For assay [10], the target named is T10, tau fragment 369-390 (human).
T10 peptide: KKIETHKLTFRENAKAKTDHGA
Put plainly: direct ELISA.

Assay [11] concerns the target T5, full length human tau protein 2N4R …. Nature of the assay: SPR, scAb captured, tau analyte. Summed up: as §1
The target in assay [12] is tau fragment 337-368 (human). Put plainly: direct ELISA.
For assay [13], the target named is T4, dGAE (tau 297-391). Put plainly: ELISA. How it is done:
(§3) A series of binding ELISA was performed using various truncated versions of the tau protein and 13mer peptide libraries spanning the entire hT40 molecule for mapping the epitopes of anti-tau scAbs (Full list of protein antigens used is given in Table 14). In general, ELISA plates were coated with 1 μg/ml hT40 or dGA or dGAE or other truncated versions of the protein and in the case of biotinylated peptides, plates were coated with 5 μg/ml Streptavidin followed by 1 μg/ml biotinylated peptide. The plates were blocked with 2% MPBS and scAb samples added at desired starting concentrations and double diluted across the plate. Binding was detected using anti-Human C Kappa HRP conjugated secondary antibody and the resulting immunoreaction was developed and absorbance values measured as described above.

The target of assay [14] is T3, dGA (tau 297-390). Put plainly: ELISA. How it is done: as §3
The target of assay [15] is T9, tau fragment 369-391. Nature of the assay: ELISA. As to the method:
as §3

The target in assay [16] is T5, full length human tau protein 2N4R …. Nature of the assay: ELISA. As to the method:
as §3

In assay [17] the target is T10, tau fragment 369-390. Nature of the assay: ELISA. As to the method: as §3
Assay [18] has as its target T5, full length human tau protein 2N4R …. Nature of the assay: hT40 ELISA.
Assay [19] has as its target T8, tau fragment 266-359 (R1-3). Put plainly: direct ELISA. The source holds these as a separate data set.
Assay [20] deals with T4, dGAE (tau 297-391). Nature of the assay: sandwich ELISA, 423 mAb capture, dGAE titrated, scAb at 10 µg/ml [D00041 Figure 34 cont. O].
Assay [21] concerns the target T4, dGAE (tau 297-391). Put plainly: sandwich ELISA, 423 mAb capture, dGAE titrated, scAb at 10 µg/ml.
For assay [22], the target named is tau fragment 337-368 (human). Nature of the assay: direct ELISA. The source holds these as a separate data set.
Assay [23] concerns the target T8, tau fragment 266-359 (R1-3). Put plainly: direct ELISA. The source holds these as a separate data set.
The target in assay [24] is T4, dGAE (tau 297-391). Nature of the assay: direct ELISA. This is another data set of the same source.
The next assay deals with T11, tau peptide 341-353 (human).
T11 peptide: Biotin-SEKLDFKDRVQSK
Nature of the assay: ELISA on biotinylated peptide over streptavidin. As to the method:
as §3

Assay [25] has as its target T5, full length human tau protein 2N4R …. Put plainly: hT40 ELISA. This is another data set of the same source.
For the next assay, the target named is T12, tau fragment 186-350 (human, UniProt P10636 503-667).
T12 construct: also called m186-350
Put plainly: direct ELISA.

T8 sequence (P10636 583-676): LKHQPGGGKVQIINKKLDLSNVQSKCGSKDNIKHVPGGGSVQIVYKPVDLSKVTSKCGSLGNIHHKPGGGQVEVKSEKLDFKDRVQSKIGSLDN
T5 sequence (P10636 other isoform, or with tags, fused parts or gaps limits assumed): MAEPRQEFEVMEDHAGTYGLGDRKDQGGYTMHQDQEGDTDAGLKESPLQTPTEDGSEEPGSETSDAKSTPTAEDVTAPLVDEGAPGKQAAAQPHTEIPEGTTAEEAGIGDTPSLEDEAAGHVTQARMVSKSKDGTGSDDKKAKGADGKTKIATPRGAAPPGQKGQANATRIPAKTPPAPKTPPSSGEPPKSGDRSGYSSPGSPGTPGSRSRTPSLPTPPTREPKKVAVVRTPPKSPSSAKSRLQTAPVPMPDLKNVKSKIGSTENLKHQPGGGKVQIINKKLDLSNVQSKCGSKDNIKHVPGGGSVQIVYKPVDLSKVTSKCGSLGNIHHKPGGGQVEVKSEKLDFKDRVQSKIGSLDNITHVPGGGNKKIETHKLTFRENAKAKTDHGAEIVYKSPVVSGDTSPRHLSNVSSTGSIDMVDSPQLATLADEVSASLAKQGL
Sequence of tau fragment 337-368 (human) (peptide, as listed by the source): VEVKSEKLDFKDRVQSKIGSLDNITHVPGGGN
T12 sequence (P10636 503-667): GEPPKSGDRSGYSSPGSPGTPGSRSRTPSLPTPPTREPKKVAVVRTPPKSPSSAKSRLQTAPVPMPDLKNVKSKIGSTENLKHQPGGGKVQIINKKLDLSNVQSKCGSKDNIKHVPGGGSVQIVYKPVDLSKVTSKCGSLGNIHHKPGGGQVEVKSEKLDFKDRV
T6 sequence (P10636 other isoform, or with tags, fused parts or gaps P301S G335D P301S G335D limits assumed): as the sequence (P10636 other isoform, or with tags, fused parts or gaps limits assumed) above, with P301S, G335D counted along it

B1: E1B8 scAb (scFv, not shown: small tags and cut ends)
scFv: QVQLQESGPSLVKPSQTLSLTCTVSGFSLTNYPVGWVRQAPGKALEWIGNIENDGSANYASALKSRLSITRDTSKNQVSLSLSSATTEDTAVYYCGREFGGSDGYTYFVDIDYWGPGLLVTVSSEGKSSGASGESKVDDQAVLTQPSSVSKSLGQSVSITCSGSSSNVGYGNYVSWFQQVPGSAPKILIYGATSRASGVPDRFSGSRSGNTATLTITSLQAEDEADYYCASYDGSSSGVFGSGTRLTVLG
notes: scAb
Regarding B1, in the assay with tau peptide 313-336, the “EC50 (read off the curve)” value was about 2 µg/mL. In addition, the binding result in the assay with tau peptide 306-323 is given as “no binding (tested: 25 ug/ml)”. Also, in the assay with dGA (tau 297-390) [1], the Kd was found to be 17.7 nM, the koff came out at 0.00242 s⁻¹ and the association rate constant (kon) turned out to be 137000 M⁻¹ s⁻¹.

B2: E2B7 scAb (scFv, not shown: small tags and cut ends)
scFv: QVQLQESGPSLVKPSQTLSLTCTVSGFSLTSWGVAWVRQAPGKALEWLGTMRSGGGTEYNPALKSRLSITRDTSKSQVSLSLSSVTTEDMAMYYCARGYLSGIHYAWGRGLLVSVSSEGKSSGASGESKVDDQAVLTQLSSVSGSLGQRVSITCSGSSSNVGDGDYVGWFQQLPGSAPKLLIYSARNRASGVPDRFSGSRSGNTATLTITSLQAEDEADYYCASIDTSRSHIFGSGTRLTVLG
notes: scAb
For B2, the “EC50 (read off the curve)” value with dGAE (tau 297-391) [2] was about 0.1 µg/mL. Also, the binding result (with dGA (tau 297-390) [3]; in assay [4]) was “no binding (tested: 25 ug/ml)” throughout.

B3: S1G2 mAb (antibody, mouse IgG2a, V domains shown)
VH: QVQLQESGPSLVKPSQTLSLTCTVSGFSLTSNSVGWVRQAPGKAPEWVAGIDTDGEEGYNPALNSRLSITRDTSKSQVSLSLSSVTSEDTAVYYCGRSYRADGLAYGYVQAIDYWGPGLLVTVSS
VL: QAVVTQPSSVSGSLGQRVSITCSGSFIGISSVGWFQQLPGSGLRTIIVASDGRPSGVPDRFSMSKSGNTATLTISSLQAEDEADYFCGSSDRTPYTGVFGSGTRLTVLG
notes: sheep-mouse IgG2a chimeric mAb; also called S1G2 antibody
With B3, in assay [5], the affinity, expressed as Kd, was 0.14 nM; the koff turned out to be 4.75e-05 s⁻¹; the kon was determined as 340000 M⁻¹ s⁻¹. The binding result in assay [6] is listed as “binds”. Also, in the assay with aggregated dGAE, the 50% effective concentration (EC50 (read off the curve)) was about 30 nM.

B4: NS2A1 scAb (scFv, not shown: small tags and cut ends)
scFv: QVQLQESGPSLVKPSQTLSLTCTVSGFSLSTNSVGWVRQAPGKAPEWVAGIDTDGEEGFNPVLKSRLSITRDTSKSQVSLSLSNVTSEDTAVYYCGRSYRTDGLAYGYVQAIDYWGPGLLVTISSEGKSSGASGESKVDDQSVLTQPSSVSGSPGQTVSITCSGSYIGSSGVGWFQQLPGSGLRTIIVASDGRPSGVPDGFSMSKSGNTATLTISSLQAEDEADYFCGSSDRTQYTGLFGSGTRLTVLG
notes: scAb
Regarding B4, the Kd in assay [7] amounted to 2.9 nM; with dGA (tau 297-390) [1], 5.4 nM; in assay [11] it was 2.9 nM. Also, the binding result (in [8]; with tau fragment 369-391 [9]; in the assay with tau fragment 369-390 [10]; in the assay with tau fragment 337-368 [12]) was “no binding (tested: 25 ug/ml)” each time. Besides, the figures for the koff (with dGA (tau 297-390) [1]; in assay [11]) were 0.00102 s⁻¹ and 0.000739 s⁻¹, respectively. Further, the kon with dGA (tau 297-390) [1] was found to be 188000 M⁻¹ s⁻¹; in [11], 252000 M⁻¹ s⁻¹.

B5: MD9/MoD9 scAb (scFv, not shown: small tags and cut ends)
scFv: QVRLQESGPSLVKSSQTLSLTCTVSGFSLTRESIAWVRQAPGKVPEWLGGVGIDGTSYYSPALKSRLSITRDTSKSQASLSLSSVATEDTAMYYCARNYIDFEYWGPGLLVTVSSEGKSSGASGESKVDDQAVLTQLSSVSGSLGQRISITCSGSSSNVGIYDVSWFQQLPGSGLRTVIYGTNNRPSGVPDRFSGSRSGNTATLTISSLQSEDEAIYYCAAGDSSTIAVFGSGTRLTVLG
notes: scAb
Turning to B5, the binding result (in the assay with dGAE (tau 297-391) [13]; with dGA (tau 297-390) [14]; with tau fragment 369-391 [15]; in assay [16]; with tau fragment 369-390 [17]) was “binds” throughout.

B6: CE3 scAb (scFv, not shown: small tags and cut ends)
scFv: QVRLQESGPSLVKPSQTLSVTCTVSGFSLISNAVGWVRQAPGKVPESLAGCSSDGKCYYNSALKSRLDITRDTSKNQISLSLSSVTTDDAAVYYCTRGYYPVYGYDYLGTIDYWGPGLLVTVSSEGKSSGASGESKVDDQAVLTQPSSVSGSLGQRVSITCSGSSSNVGRNDVAWFQQLPGSGLRTIIYGTTSRPSGIPDRFSGSKSGVTATLTIDSLQAEDEADYFCASGDSSAINDIFGSGTRLTVLG
notes: scAb
As to B6, the Kd in assay [7] and in assay [11] was 3.79 nM throughout. In addition, the concentration for a half-maximal effect (EC50 (read off the curve)) is about 0.1 µg/mL in [18], about 0.3 µg/mL in [19] and about 0.3 µg/mL with dGAE (tau 297-391) [20]. The same molecule returned a koff in assay [11] of 0.000662 s⁻¹. The molecule further returned a kon in assay [11] of 174000 M⁻¹ s⁻¹.

B7: CB3 scAb (scFv, not shown: small tags and cut ends)
scFv: QVQLQESGPSLVKPSQTLSLTCTVSGFSLSSVAVNWVRQAPGKVPEWLGGIISNGGTGYNPALKSRLSITRDTSKSQVSLALTHVTTEDTAVYYCGRGVEWEGSMDYLGPGLLVTVSSEGKSSGSGSETKVDDQSVLTQPSSVSGFLGQRVTITCSGSSSNVGAGSYVGWYQQVPGSGLRILIYGATKRASGLPDRFSGSRSGNTATLTISSLQAEDEADYYCVSYQTDFTLVFGSGTRLTVLG
notes: scAb
For the molecule B7, the concentration for a half-maximal effect (EC50 (read off the curve)) with dGAE (tau 297-391) [21] was about 0.4 µg/mL.

B8: S1D12 scAb (scFv, not shown: small tags and cut ends)
scFv: QVQLQESGPSLVKPSQTLSLTCTVSGFSLNNNAVGWVRQAPGKVPESLVGCSSDGTCYYNSALKSRLDITRDTSKNQISLSLSSVTTDDAAVYYCTRGHYSIYGYDYLGTIDYWGPGLLVTVSSEGKSSGASGESKVDDQAVLTQPSSVSGSLGQRVSITCSGSSSNVGGGNSVGWYQHLPGSGLKTIIYDTNSRPSGVPDRFSGSRSGNTATLTINSLQAEDEGDYYCVTGDSTTHDDLVGSGTRLTVLG
notes: scAb
With B8, the “EC50 (read off the curve)” value is about 4 µg/mL in the assay with tau fragment 337-368 [22]; about 0.5 µg/mL in [23]; about 3 µg/mL with dGAE (tau 297-391) [24]; about 0.8 µg/mL with tau peptide 341-353; about 0.005 µg/mL in [18]; about 1 µg/mL in assay [25]. Further, in the assay with tau fragment 186-350, the “EC50 (read off the curve)” value is about 2 µg/mL. Also, the Kd in assay [7] turned out to be 0.122 nM; with dGA (tau 297-390) [1] it was 0.344 nM; in [11] it was 0.122 nM. For the same molecule, the values for the dissociation rate constant (koff) (with dGA (tau 297-390) [1]; in assay [11]) were 0.000418 s⁻¹ and 0.00015 s⁻¹, respectively. For the same molecule, the kon with dGA (tau 297-390) [1] amounted to 1.21e+06 M⁻¹ s⁻¹; in assay [11], 1.25e+06 M⁻¹ s⁻¹.
